Stoichiometry N data for one substance are collected here from paper PMC10439124.

In the assay the target is Pfs230D1-E2p fusion protein (Pfs230D1-linker-E2p), 60-copy nanoparticle (Plasmodium falciparum (3D7) | Geobacillus stearothermophilus) (UniProt P68874). The experiment in a line: SEC-MALS + other: SEC-SAXS; SIBYLS beamline 12.3.1; the sample was injected into a size-exclusion column and a post-column splitter directed the eluate to the MALS and SAXS systems; molecular weight from Astra 6 (MALS) and PRIMUS/ATSAS (SAXS).

The stoichiometry N is a count of units in the complex or per binding partner. With “Pfs230D1-E2p fusion protein (Pfs230D1-linker-E2p), 60-copy nanoparticle (from UniProt P68874 542-736)”, the stoichiometry N turned out to be 60.
